Changes are numbered by the printed parent chain.
Experiments:
[1] = target: T1, human Nectin-4 Mutant 7bis (human, UniProt Q96NY8 32-510); test: binding to HEK-293T cells transfected with the Nectin-4 mutant
T1 construct: Expressed on transfected HEK-293T cells; also called A72P/G73N/K197T/S199A
T1 chain: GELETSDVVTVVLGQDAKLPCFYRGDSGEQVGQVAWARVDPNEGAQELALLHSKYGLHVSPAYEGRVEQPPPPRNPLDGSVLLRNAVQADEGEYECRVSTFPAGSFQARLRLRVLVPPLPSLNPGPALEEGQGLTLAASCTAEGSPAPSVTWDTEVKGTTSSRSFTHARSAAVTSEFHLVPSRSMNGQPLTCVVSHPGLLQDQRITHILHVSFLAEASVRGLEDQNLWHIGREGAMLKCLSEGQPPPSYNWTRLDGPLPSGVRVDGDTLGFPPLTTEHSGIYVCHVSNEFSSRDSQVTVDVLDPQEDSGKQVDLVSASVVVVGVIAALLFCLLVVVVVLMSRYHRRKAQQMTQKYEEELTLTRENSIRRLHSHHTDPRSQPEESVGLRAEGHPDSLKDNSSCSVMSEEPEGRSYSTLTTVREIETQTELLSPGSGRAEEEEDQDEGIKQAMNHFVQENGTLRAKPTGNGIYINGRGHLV

human Nectin-4 Mutant 7 = target: T2, human Nectin-4 Mutant 7 (human, UniProt Q96NY8 32-510); test: as above
T2 construct: Expressed on transfected HEK-293T cells; also called S195A/K197T/S199A
T2 chain: T1 chain with P41A, N42G, S164A

[2] = target: T3, wild-type human Nectin-4 on the CHO huNectin4 Cl.3C8 cell line (human, UniProt Q96NY8 32-510); test: flow cytometry on wild-type human Nectin-4 cell line
T3 construct: also called whole Nectin-4 protein; huNectin4 CI.3C8
T3 sequence: T1 chain with P41A, N42G, T166K, A168S

[3] = target: T4, human Nectin 2 on CHO cells (human, UniProt Q92692 32-538); test: flow cytometry on CHO cells expressing human Nectin 2
T4 sequence: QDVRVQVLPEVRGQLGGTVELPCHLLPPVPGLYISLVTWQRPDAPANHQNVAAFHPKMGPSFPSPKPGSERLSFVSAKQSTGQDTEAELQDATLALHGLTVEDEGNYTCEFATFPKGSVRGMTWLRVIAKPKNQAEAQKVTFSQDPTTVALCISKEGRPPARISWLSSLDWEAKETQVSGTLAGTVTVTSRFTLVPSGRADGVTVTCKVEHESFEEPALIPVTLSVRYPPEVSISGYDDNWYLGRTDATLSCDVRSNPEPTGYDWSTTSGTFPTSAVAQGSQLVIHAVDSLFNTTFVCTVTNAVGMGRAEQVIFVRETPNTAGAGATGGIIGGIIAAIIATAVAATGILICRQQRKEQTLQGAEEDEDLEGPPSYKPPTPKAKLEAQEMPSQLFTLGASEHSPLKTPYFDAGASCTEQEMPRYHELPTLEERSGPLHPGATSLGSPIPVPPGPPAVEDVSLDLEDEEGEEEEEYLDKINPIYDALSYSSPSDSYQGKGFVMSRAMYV
Experimental: (§1) Anti-Nectin-4 antibodies were tested by flow cytometry for binding to different CHO cell lines made to express respectively the human Nectin 1, Nectin 2, Nectin 3 and PVR proteins. The expression of each cell lines was controlled and validated with known respectively the anti-human Nectin1, anti-human Nectin2, anti-human Nectin3 and anti-human PVR antibodies. The mature amino acid sequence of the proteins expressed by the cells were as follows:
(§2) Nectin 1, Nectin 2, Nectin 3 and PVR proteins as in Example 12. […] Epitope mapping was carried out by assessing competition for binding to Nectin-4 by SPR as in Example 14.

[4] = target: T5, human Nectin 1 on CHO cells (human, UniProt Q15223 31-517); test: flow cytometry on CHO cells expressing human Nectin 1
T5 sequence: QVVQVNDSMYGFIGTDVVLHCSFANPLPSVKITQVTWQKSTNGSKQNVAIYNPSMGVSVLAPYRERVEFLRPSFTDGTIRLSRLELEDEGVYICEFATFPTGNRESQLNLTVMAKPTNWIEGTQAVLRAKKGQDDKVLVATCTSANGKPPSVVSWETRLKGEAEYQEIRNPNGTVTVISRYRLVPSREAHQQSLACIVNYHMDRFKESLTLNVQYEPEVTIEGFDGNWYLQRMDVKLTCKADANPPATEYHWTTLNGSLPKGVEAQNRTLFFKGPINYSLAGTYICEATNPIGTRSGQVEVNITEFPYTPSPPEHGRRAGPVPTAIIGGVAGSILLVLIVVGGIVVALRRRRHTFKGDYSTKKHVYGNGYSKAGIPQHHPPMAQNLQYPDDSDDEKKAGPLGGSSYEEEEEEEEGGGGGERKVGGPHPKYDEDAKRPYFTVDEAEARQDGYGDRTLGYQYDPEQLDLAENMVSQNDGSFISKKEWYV
Experimental: as §1, §2

binding result [1]: no binding
binding result (human Nectin-4 Mutant 7): no binding
binding result [2]: binds
binding result [3]: no binding
binding result [4]: no binding
B1: antibody 6A7 (antibody, human IgG1, V domains shown)
VH: QVQLKESGAELVKPGASVKLSCKASGYTFTSYWMHWVKQRPGHGLEWVGEIDPSDSYTNYNQKFKGKATLTIDKSSSTVYMQLSSLTSEDSAVYYCARSGNYDAMDYWGQGTSVTVSA
VL: DIVMTQAAFSSAVTLGTSASISCRSSKSLLHSNGITYLYWYLQKPGQSPHFLIYQMSNLASGVPDRFTSSGSGTDFTLRISRVEAEDVGVYYCAQNLELPWTFGGGTKLEIK
notes: also called CHG1-M-4N4-6A7

Source: patent US20240325557A1 (INNATE PHARMA, published 2024)
